From patent US20180127505A1, “HUMANIZED ANTI-AXL ANTIBODIES AND THEIR CONJUGATES” (MEDIMMUNE LIMITED, priority 2015, published 2018) come the findings set out here.

One experiment addresses T1, AXL on MDA-MB-231 cells (UniProt P30530 26-894, limits assumed).
T1 sequence (looked up): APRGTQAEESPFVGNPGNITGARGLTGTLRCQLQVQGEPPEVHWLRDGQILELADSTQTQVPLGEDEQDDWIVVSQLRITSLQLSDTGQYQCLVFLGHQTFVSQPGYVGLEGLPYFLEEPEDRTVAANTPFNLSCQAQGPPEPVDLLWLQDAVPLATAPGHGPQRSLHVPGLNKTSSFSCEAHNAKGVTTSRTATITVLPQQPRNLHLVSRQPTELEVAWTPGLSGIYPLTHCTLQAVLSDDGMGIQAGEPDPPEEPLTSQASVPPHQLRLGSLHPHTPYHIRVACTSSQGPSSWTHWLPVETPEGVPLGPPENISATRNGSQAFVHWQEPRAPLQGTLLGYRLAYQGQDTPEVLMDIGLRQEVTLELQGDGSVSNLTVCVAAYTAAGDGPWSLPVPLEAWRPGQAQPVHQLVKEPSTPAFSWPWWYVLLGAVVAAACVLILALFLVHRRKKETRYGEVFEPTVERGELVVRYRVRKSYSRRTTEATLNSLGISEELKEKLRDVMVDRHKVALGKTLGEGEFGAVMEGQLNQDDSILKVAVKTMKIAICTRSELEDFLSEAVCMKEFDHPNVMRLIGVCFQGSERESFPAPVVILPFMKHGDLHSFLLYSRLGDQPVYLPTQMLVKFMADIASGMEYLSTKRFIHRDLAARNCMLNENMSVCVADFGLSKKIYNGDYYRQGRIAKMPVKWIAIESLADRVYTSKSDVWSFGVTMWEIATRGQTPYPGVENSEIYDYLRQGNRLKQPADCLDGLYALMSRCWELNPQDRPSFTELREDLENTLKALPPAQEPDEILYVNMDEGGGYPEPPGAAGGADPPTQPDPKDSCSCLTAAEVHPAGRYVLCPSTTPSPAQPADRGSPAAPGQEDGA
Briefly: cell-based or functional assay.

The target of experiment [1] is T2, Human AXL-Strep-His (produced by Evitria AG in transiently transfected CHO cells) (human, UniProt P30530 26-451, limits assumed).
T2 construct: also called Axl-Strep-His antigen; human AxI-Strep-His; not shown: Strep and His tags
T2 sequence: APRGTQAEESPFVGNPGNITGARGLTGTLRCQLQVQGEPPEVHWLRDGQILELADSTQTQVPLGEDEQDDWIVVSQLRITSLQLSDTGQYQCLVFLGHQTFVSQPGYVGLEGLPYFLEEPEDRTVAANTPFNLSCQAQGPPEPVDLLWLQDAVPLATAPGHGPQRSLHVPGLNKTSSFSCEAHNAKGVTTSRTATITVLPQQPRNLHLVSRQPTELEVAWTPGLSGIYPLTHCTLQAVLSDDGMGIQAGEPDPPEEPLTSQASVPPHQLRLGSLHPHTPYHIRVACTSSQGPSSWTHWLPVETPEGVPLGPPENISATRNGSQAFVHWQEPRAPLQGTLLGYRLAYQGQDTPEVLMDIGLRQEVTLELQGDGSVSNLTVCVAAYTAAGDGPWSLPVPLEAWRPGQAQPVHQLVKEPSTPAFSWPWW
Briefly: human AXL ELISA (Protocol 4), untreated antibody of the accelerated stability analysis, OD 450nm against Log10[IgG (µg/mL)]. For orientation: ELISA stands for enzyme-linked immunosorbent assay.

The next experiment has as its target T3, Cynomolgus monkey AXL (Macaca fascicularis, UniProt A0A2K5WXE0).
T3 construct: form not described
T3 sequence (antigen): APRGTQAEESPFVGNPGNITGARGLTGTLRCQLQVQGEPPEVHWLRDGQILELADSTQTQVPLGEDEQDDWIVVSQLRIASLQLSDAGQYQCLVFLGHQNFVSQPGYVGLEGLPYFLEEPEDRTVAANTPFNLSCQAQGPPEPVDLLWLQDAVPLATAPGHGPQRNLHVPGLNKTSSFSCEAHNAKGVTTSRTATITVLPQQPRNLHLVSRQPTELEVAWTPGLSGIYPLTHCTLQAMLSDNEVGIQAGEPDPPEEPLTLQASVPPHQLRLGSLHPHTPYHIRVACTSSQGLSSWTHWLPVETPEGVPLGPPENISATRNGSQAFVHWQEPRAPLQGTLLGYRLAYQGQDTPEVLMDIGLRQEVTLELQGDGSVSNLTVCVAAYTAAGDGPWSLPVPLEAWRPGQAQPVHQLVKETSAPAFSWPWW
Briefly: ELISA on cynomolgus monkey AXL (coating antigen not described in the text), OD 450nm against Log10[IgG (µg/mL)] [B. Cynomolgus monkey AXL].

For experiment [2], the target named is T4, Human Axl-Fc chimera (R&D Systems #154-AL) (human, UniProt P30530 26-451).
T4 construct: Bought reagent; also called Axl-Fc antigen; AXL-Fc chimera antigen; Fc part of the bought chimera not given
T4 sequence: T2 sequence
Briefly: SPR (Biacore T200), AXL-Fc amine-coupled to CM5 chip, antibody as analyte, bivalent model. A general note: Surface plasmon resonance follows binding to a sensor surface in real time, without labels.

For experiment [3], the target named is T2, Human AXL-Strep-His (produced by …). Briefly: SPR (Biacore T200), AXL-Strep-His amine-coupled to CM5 chip, antibody as analyte, bivalent model; column head KD1.
Experiment [4] shares this target. Briefly: ELISA on plate-coated human AXL-Strep-His (Protocol 4), OD 450nm against Log10[IgG (µg/mL)] [A. Human Axl].
Experiment [5] shares this target. Briefly: SPR (Biacore T200), AXL-Strep-His amine-coupled to CM5 chip, antibody as analyte, bivalent model.
Experiment [6] shares this target. Briefly: SPR (Biacore T200), AXL-Strep-His amine-coupled to CM5 chip, antibody as analyte, heterogeneous ligand model.
For experiment [7] the target is unchanged. Briefly: SPR (Biacore T200), AXL-Strep-His amine-coupled to CM5 chip, antibody as analyte, heterogeneous ligand model; column head KD1; heterogeneous ligand model; AXL-Strep-His antigen.

Residue numbers refer to the chain shown, from its start.

B1: Ab2-ConjE (Ab2 conjugated to the ConjE PBD payload, DAR 2.4) (other)
VH: MGFKMESQFQVFVFVFLWLSGVDGQVQLVESGGGVVQPGRSLRLSCAASGFTFSSYGMSVRQAPGKGLEWVATISSGGSYTYYPDSVKGRFTISRDNSKNTLYLQMNSLRAEDTAVYYCARHPIYYTYDDTMDYWGQGTTVTVSS
VL: EIVLTQSPATLSLSPGERATLSCSASSSVSSGNFHWYQQKPGLAPRLLIYRTSNLASGIPDRFSGSGSGTDFTLTISRLEPEDFAVYYCQQWSGYPWTFGPGTKVDIK
modifications: ConjE PBD drug-linker on cysteine thiol(s) of the antibody, sites not stated; DAR 2.4
For B1, in the experiment with AXL on MDA-MB-231 cells, the “GI50 (pg/ml), MDA-MB-231 cytotoxicity, MTS assay, 5 days” value (from here on “GI50 (pg/ml), MDA-MB-231 cytotoxicity”) was found to be 73 pg/mL.

B2: Ab3-ConjE (Ab3 conjugated to the ConjE PBD payload, DAR 2.2) (other)
VH: B1 VH
VL: B1 VL with A9G, D61A, R78S, P101G, V105L, D106E
modifications: ConjE PBD drug-linker on cysteine thiol(s) of the antibody, sites not stated; DAR 2.2
Regarding B2, the “GI50 (pg/ml), MDA-MB-231 cytotoxicity” value in the experiment with AXL on MDA-MB-231 cells came out at 27.6 pg/mL.

B3: Ab5-ConjE (Ab5 conjugated to the ConjE PBD payload, DAR 2.3) (other)
VH: EVQLVESGGGLVQPGGSLRLSCAASGFTFSSYGMSWVRQAPGKGLEWVATISSGGSYTYYPDSVKGRFTISRDNAKNSLYLQMNSLRAEDTAVYYCARHPIYYTYDDTMDYWGQGTLVTVSS
VL: B1 VL with A9G, D61A, R78S, P101G, V105L, D106E
modifications: ConjE PBD drug-linker on cysteine thiol(s) of the antibody, sites not stated; DAR 2.3
On to B3, for which, in the experiment with AXL on MDA-MB-231 cells, the “GI50 (pg/ml), MDA-MB-231 cytotoxicity” value was 44 pg/mL.

B4: Ab4-ConjE (Ab4 conjugated to the ConjE PBD payload, DAR 2.6) (other)
VH: B3 VH
VL: B1 VL
modifications: ConjE PBD drug-linker on cysteine thiol(s) of the antibody, sites not stated; DAR 2.6
In the case of B4, the “GI50 (pg/ml), MDA-MB-231 cytotoxicity” value with AXL on MDA-MB-231 cells came to 64.2 pg/mL.

B5: Ab4, anti-AXL antibody comprising VH SEQ ID NO. 3 and VL SEQ ID NO. 5 and a constant region derived from one or more human antibodies (antibody, V domains shown)
VH: B3 VH
VL: B1 VL
Turning to B5, the entries for the “EC50 (read off the curve)” value (in experiment [1]; in the experiment with Cynomolgus monkey AXL; in [4]) were roughly 20 ng/mL, roughly 20 ng/mL and roughly 30 ng/mL, respectively. The Kd was 1.37 nM in experiment [2] and 60.4 nM in experiment [3]. In addition, the dissociation rate constant (koff) (usually the rate constant with which the complex falls apart) in [2] came to 0.000396 s⁻¹; in experiment [5] it was 0.00059 s⁻¹. Besides, the kon (usually the rate constant with which the complex forms) in [2] was 290000 M⁻¹ s⁻¹; in experiment [5] it was 9760 M⁻¹ s⁻¹.

B6: Ab5, anti-AXL antibody comprising VH SEQ ID NO. 3 and VL SEQ ID NO. 7 and a constant region derived from one or more human antibodies (antibody, V domains shown)
VH: B3 VH
VL: B1 VL with A9G, D61A, R78S, P101G, V105L, D106E
For the molecule B6, the EC50 (read off the curve) (commonly the concentration at which the effect is half-maximal) in experiment [1] was roughly 20 ng/mL; with Cynomolgus monkey AXL, roughly 30 ng/mL. Also, the figures for the Kd in experiment [2] and in [3] were 7.69 nM and 23 nM, respectively. Besides, the values for the koff in experiment [2] and in experiment [5] were 0.000159 s⁻¹ and 0.000435 s⁻¹, respectively. Moreover, the results for the kon in experiment [2] and in experiment [5] were 20600 M⁻¹ s⁻¹ and 18900 M⁻¹ s⁻¹, respectively.

B7: Ab1-ConjE (Ab1 conjugated to the ConjE PBD payload, DAR 2.2) (other)
VH: EVQLVESGGDLVKPGGSLKLSCAASGFTFSSYGMSWVRQTPDKRLEWVATISSGGSYTYYPDSVKGRFTISRDNAKNTLYLQMSSLKSEDTAMYYCARHPIYYTYDDTMDYWGQGTSVTVSS
VL: ENVLTQSPAIMAASPGEKVTMTCSASSSVSSGNFHWYQQKPGTSPKLWIYRTSNLASGVPARFSGSGSGTSYSLTISSMEAEDAATYYCQQWSGYPWTFGGGTKLEIK
modifications: ConjE PBD drug-linker on cysteine thiol(s) of the antibody, sites not stated; DAR 2.2
For the molecule B7, the “GI50 (pg/ml), MDA-MB-231 cytotoxicity” value in the experiment with AXL on MDA-MB-231 cells was 6.95 pg/mL.

B8: Ab1, anti-AXL antibody comprising the murine 1H12 VH (SEQ ID NO. 1) and VL (SEQ ID NO. 4) and a constant region derived from one or more human antibodies (antibody, V domains shown)
VH: B7 VH
VL: B7 VL
notes: also called Abl; chimeric 1H12
In the case of B8, the koff is 0.000533 s⁻¹ in [6] and 0.000142 s⁻¹ in experiment [2]. Further, the kon came to 13100 M⁻¹ s⁻¹ in experiment [6] and 30900 M⁻¹ s⁻¹ in [2]. Besides, the Kd in experiment [7] was 40.7 nM; in [2], 4.6 nM. Besides, the “EC50 (read off the curve)” value was roughly 10 ng/mL in [1], roughly 20 ng/mL with Cynomolgus monkey AXL and roughly 30 ng/mL in [4].
